Source: patent US20030017991A1 (PHARMACIA AND UPJOHN COMPANY A DELAWARE, published 2003)
Non-standard residues stand in square brackets, D forms with d. No end group written: not given here. Nle = CCCC[C@H](N)C(=O)O

Biological target: human Asp2 aspartyl protease (Hu-Asp2), recombinant enzyme used in the in vitro cleavage assays (human, UniProt P56817 22-453, limits assumed)
Test: cell-based or functional assay

human Asp2 aspartyl protease (Hu-Asp2), recombinant enzyme used in the in vitro cleavage assays, sequence (P56817 22-453 Q214H limits assumed): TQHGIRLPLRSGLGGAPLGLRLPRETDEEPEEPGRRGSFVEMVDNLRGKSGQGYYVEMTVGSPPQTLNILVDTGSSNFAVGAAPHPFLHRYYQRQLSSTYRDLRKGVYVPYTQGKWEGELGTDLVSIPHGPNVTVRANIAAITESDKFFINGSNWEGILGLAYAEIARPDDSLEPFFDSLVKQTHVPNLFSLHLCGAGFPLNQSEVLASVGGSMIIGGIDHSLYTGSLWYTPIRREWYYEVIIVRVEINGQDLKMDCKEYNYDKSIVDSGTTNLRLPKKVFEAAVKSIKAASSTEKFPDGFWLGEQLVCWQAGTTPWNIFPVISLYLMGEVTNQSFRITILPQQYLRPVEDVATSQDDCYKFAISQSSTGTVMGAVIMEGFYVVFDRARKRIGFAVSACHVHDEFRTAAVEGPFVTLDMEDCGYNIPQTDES

| activity against peptide #3 (SEQ ID NO:134) | activity against SEVSY-EVEFR (SEQ ID NO:141), peptide activity assay | Binder |
| --- | --- | --- |
| ~10 fold lower | – | KTIN[Nle]DVDPS [KTINnle-DVDPS] |
| – | 0.2 ratio | SEVNYEVEFR [SEVNY-EVEFR] |
